Measured values taken from article PMC4180971 (Genes & Development, 2014).

B1: (myc)12-Est2 (natural protein, S. cerevisiae, UniProt Q06163 1-884, looked up)
chain: MKILFEFIQDKLDIDLQTNSTYKENLKCGHFNGLDEILTTCFALPNSRKIALPCLPGDLSHKAVIDHCIIYLLTGELYNNVLTFGYKIARNEDVNNSLFCHSANVNVTLLKGAAWKMFHSLVGTYAFVDLLINYTVIQFNGQFFTQIVGNRCNEPHLPPKWAQRSSSSSATAAQIKQLTEPVTNKQFLHKLNINSSSFFPYSKILPSSSSIKKLTDLREAIFPTNLVKIPQRLKVRINLTLQKLLKRHKRLNYVSILNSICPPLEGTVLDLSHLSRQSPKERVLKFIIVILQKLLPQEMFGSKKNKGKIIKNLNLLLSLPLNGYLPFDSLLKKLRLKDFRWLFISDIWFTKHNFENLNQLAICFISWLFRQLIPKIIQTFFYCTEISSTVTIVYFRHDTWNKLITPFIVEYFKTYLVENNVCRNHNSYTLSNFNHSKMRIIPKKSNNEFRIIAIPCRGADEEEFTIYKENHKNAIQPTQKILEYLRNKRPTSFTKIYSPTQIADRIKEFKQRLLKKFNNVLPELYFMKFDVKSCYDSIPRMECMRILKDALKNENGFFVRSQYFFNTNTGVLKLFNVVNASRVPKPYELYIDNVRTVHLSNQDVINVVEMEIFKTALWVEDKCYIREDGLFQGSSLSAPIVDLVYDDLLEFYSEFKASPSQDTLILKLADDFLIISTDQQQVINIKKLAMGGFQKYNAKANRDKILAVSSQSDDDTVIQFCAMHIFVKELEVWKHSSTMNNFHIRSKSSKGIFRSLIALFNTRISYKTIDTNLNSTNTVLMQIDHVVKNISECYKSAFKDLSINVTQNMQFHSFLQRIIEMTVSGCPITKCDPLIEYEVRFTILNGFLESLSSNTSKFKDNIILLRKEIQHLQAYIYIYIHIVN
B2: Est1-(myc)12 (natural protein, S. cerevisiae, UniProt P17214 1-699, looked up)
chain: MDNEEVNEECMRLFFKNARAHLDKHLTSRLTCDENAYITFRCFLDGIHRKSTRFLEELLLKQENMYHNNNYERINDSVIPLVLKLLWLQIHEPTLQWFEHWFHDIMRLSNRRKFRVFRIFQKKMIQFFKITHRYYYDIIEHLCAKYDMNSVISNALFAKLNLMQYTDGLSTHEKIILNTSNPLTFSIVISLQRCVINLGSTHFYKTLLNKPSNKPKSVEGFEKSIRYLNIASLYLPAVGDTYFQRAKIYLITGKFSLYFFELVRGALVRIPSKCALNNLKDFILTPDFPERRRLMKKLAILVSKDLKGEKSFFEGQIVLQFLSIVEHTLVPQSWNASRASNCWLLKEHLQMAALKYHSGNINVILENLAATMGSFDLMFTTRKSKEQKNKLKYADLSERQVFFLDLSFDFIANIIDVVIKPSWQKNMEDFRYLAIIRLLMCWIKSYRSILQYTHRHRKFCTSFALLLNDLINSPLNCSGNIYSHRPKRSYLFREDIIFREFSCINFALTDFNDDYVYDSPDMINNIIGCPTLTKVLSPKEECVLRIRSIIFSGMKFLEKNDTGVIWNASKYKFDLISPNIKIKRQIALSEISSKINVKTQQERVVSSRKVEAKRDEQQRKRAGKIAVTELEKQFANVRRTKKLSPLPEKDGVSSELVKHAASRGRKTITGPLSSDFLSYPDEAIDADEDITVQVPDTPT

Tests used:
[1] = target: T1, Est3-(Flag)3 (S. cerevisiae, UniProt Q03096 1-181); experiment: co-IP
T1 sequence (looked up): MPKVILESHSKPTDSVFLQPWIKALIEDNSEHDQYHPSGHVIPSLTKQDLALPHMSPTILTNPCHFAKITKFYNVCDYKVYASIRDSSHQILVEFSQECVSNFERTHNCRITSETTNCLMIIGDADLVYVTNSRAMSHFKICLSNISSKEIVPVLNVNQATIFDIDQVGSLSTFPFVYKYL

[2] = target: T1, Est3-(Flag)3; experiment: co-IP; remark: listed apart in the source

Row | Binder | fold higher co-precipitation in G2/M than in G1 [1] [fold] | fold increase in G2/M against G1 (quaternary complex) [1] [fold] | fold reduction in the tlc1-59 strain against the TLC1 strain [2] [fold] | Est1:Est2 ratio in the anti-Est3 immunoprecipitate [1] [Est1 per Est2]
1 | B1 | ~20 | ~20 | – | –
2 | B2 | – | – | ~20 | ~4
